This is an account of results in patent US20220195063A1 (BYONDIS B V, published 2022).

Sequences and labels used below:
T1: cynomolgus SIRPα (cySIRPα), protein antigen (cynomolgus monkey, UniProt A0A2K5VYQ9 31-369)
T1 construct: Coated on the plate in ELISA
T1 sequence: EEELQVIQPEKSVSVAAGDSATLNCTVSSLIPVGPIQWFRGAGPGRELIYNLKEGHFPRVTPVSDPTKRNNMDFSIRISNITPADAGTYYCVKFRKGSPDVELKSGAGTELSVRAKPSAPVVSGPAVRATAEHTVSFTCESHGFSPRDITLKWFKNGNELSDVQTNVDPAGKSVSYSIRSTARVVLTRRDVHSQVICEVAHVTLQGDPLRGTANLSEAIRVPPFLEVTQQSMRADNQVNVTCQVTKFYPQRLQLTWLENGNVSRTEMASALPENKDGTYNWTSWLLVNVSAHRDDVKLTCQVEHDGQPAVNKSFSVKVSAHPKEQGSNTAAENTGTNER

T2: cynomolgus SIRPα expressed on cells (cynomolgus monkey, UniProt A0A2K5VYQ9 31-507)
T2 construct: whole, on cells; also called ExpiCHO-S (cySIRPα)
T2 sequence: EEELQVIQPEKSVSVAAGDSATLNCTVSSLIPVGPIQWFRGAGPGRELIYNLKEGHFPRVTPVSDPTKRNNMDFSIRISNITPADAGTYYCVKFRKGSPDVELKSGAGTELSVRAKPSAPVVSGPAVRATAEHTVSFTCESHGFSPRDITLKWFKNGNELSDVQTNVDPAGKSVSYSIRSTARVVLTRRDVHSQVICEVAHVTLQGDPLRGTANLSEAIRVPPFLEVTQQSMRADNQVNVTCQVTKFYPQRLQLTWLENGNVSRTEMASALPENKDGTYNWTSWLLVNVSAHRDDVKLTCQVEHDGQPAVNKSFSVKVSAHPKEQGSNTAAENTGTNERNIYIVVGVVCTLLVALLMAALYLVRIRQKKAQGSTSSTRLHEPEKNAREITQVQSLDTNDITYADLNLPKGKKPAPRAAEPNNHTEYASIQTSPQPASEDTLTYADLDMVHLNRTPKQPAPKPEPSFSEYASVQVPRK

B1: KWAR23 huIgG1LALA (antibody, V domains shown)
VH: EVQLQQSGAELVKPGASVKLSCTASGFNIKDYYIHWVQQRTEQGLEWIGRIDPEDGETKYAPKFQDKATITADTSSNTAYLHLSSLTSEDTAVYYCARWGAYWGQGTLVTVSS
VL: QIVLTQSPAIMSASPGEKVTLTCSASSSVSSSYLYWYQQKPGSSPKLWIYSTSNLASGVPARFSGSGSGTSYSLTISSMEAEDAASYFCHQWSSYPRTFGAGTKLELK
B2: KWAR23 mouse IgG2a (antibody, V domains shown)
VH: B1 VH
VL: B1 VL
B3: 12C4huIgG1LALA (antibody, V domains shown)
VH: EVKLEESGGGLMQPGGSMKLSCVASGFTFSNYWMNWVRQSPEKGLEWVAEIRLKSNNYATHYAESVKGRFTISRDDSKSSVYLQMNNLRAEDTGIYYCIRDYDYDAYFDYWGQGTTLTVSS
VL: DIVLTQSPASLAVSLGQRATISCRASKSVSTSGYNYMYWYQQKPGQPPKLLIYLASNLESGVPARFSGSGSGTDFTLNIHPVEEEDAATYYCQHSGELPYTFGGGTKLEIKR
notes: HAVT20 leader left out; also called 12C4LALA; huIgG112C4LALA
B4: anti-SIRPα antibody 8 (antibody, human IgG1, kappa, L234A L235A, V domains shown)
VH: QSLEESGGRLVTPGTPLTLTCTASGVDLSNYAMGWVRQAPGKGLEWIGIIYAGGSTSYATWAKGRFTISKTSTTMDLKMTSPTTEDTATYFCARHRSDGYDYFHLWGPGTLVTVSL
VL: AIDMTQTPASVSEPVGGTVTIKCQASQSISSWLAWYQQKPGQRPKLLIYDASKLASGVPSRFSGSGSGTEFTLTISGVQSDDAAAYYCQQGYAVSYVENIFGGGTEVVVKR
notes: Rabbit variable regions on human IgG1 LALA / kappa
B5: anti-SIRPα antibody 5 (antibody, human IgG1, kappa, L234A L235A, V domains shown)
VH: QSVEESGGRLVTPGTPLTLTCTVSGFSLSSYVMGWFRQAAGKGLEYIGYINADGSPYYATWVNGRFTISKTPTTMDLKINSPTTEDTATYFCARVGPLGVDYFNIWGPGTLVTVSL
VL: DIVMTQTPASVEAAVGGTVTIKCQASQSINRYLTWYQQKPGQRPKLLIYYASTLESGVPSRFEGSGSGTDYTLTISDLESADAATYYCQSYYYISRTYAFGGGTEVVVKR
notes: as for B4
B6: anti-SIRPα antibody 2 (antibody, human IgG1, kappa, L234A L235A, V domains shown)
VH: QSVEESGGRLVTPGTPLTLTCTVSGFSLSNYAMHWVRQAPGKGLEWIGIIYTGGATSYATWAKGQFTISKTSTTVDLKITSPTTEDTATYFCARGDRDGYAYFNIWGPGTLVTVSL
VL: QIVMTQTPFSVSAVVGGTVTIKCQASHNIGSWLAWYQQKPGQRPKLLIYDASTLASGVSSRFKGSGSGTEFTLTISGVESADAATYYCQQGYGISYVHNVFGGGTEVVVKR
notes: as for B4

T4 sequence (P78324 other isoform, or with tags, fused parts or gaps limits assumed): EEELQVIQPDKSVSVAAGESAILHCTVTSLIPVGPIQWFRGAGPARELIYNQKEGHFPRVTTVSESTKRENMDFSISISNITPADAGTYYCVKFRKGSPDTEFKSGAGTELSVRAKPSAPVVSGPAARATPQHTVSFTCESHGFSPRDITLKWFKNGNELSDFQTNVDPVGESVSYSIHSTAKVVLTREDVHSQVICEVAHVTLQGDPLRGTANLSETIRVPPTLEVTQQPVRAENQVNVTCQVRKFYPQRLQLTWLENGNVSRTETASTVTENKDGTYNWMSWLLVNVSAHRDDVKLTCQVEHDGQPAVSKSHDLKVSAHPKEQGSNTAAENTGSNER

The target in one assay is T3, human SIRPγ (huSIRPγ) (human, UniProt Q9P1W8 29-360, limits assumed, biotinylated in the SPR assay).
T3 construct: Coated on the plate in ELISA, biotinylated and captured in SPR
T3 sequence (Q9P1W8 29-360 limits assumed): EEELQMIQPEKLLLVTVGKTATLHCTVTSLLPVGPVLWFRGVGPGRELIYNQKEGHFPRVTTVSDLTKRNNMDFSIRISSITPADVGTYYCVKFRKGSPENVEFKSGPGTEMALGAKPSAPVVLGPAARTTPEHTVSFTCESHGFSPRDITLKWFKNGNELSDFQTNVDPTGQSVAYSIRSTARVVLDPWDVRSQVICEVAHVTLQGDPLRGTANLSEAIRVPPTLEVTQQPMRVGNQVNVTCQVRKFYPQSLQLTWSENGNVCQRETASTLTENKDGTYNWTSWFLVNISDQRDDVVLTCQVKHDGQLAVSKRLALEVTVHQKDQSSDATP
Put plainly: SPR, biotinylated antigen captured, 25 C. How it is done: (§1) Surface Plasmon Resonance (SPR) assay: Affinity analysis was performed by single cycle kinetics analysis on a Surface Plasmon Resonance apparatus (Biacore T200 system, GE Life Sciences) at 25° C. Biotinylated SIRP antigens were captured on the surface of a chip suitable for biotinylated molecules (Sensor Chip CAP, GE Life Sciences) by injecting 5 μg/ml of the SIRP antigen in running buffer (10 mM HEPES buffer at pH 7.4 with 150 mM NaCl, 3 mM EDTA and 0.005% v/v polyoxyethylene (20) sorbitan monolaurate (Surfactant P20) for 60 sec at 10 μL/min after injection of a streptavidin conjugate (20× diluted biotin CAPture reagent, GE Life Sciences) for 60 sec at 10 μl/min. Baseline stabilization was set at 1 min after which five increasing concentrations of an anti-SIRP antibody in running buffer (10 mM HEPES buffer at pH 7.4 with 150 mM NaCl, 3 mM EDTA and 0.005% v/v polyoxyethylene (20) sorbitan monolaurate) were injected. For each step an association time of 150 sec was used, followed by a dissociation time of 1200 sec at the highest concentration only, all at a flow rate of 30 μL/min. Regeneration was performed with 6 M guanidine-HCl, 0.25 M NaOH solution (60 sec with flow rate of 30 μL/min). Double blank subtraction was performed on the observed sensorgrams using a non anti-SIRP (blank) immobilized reference flow channel and running buffer injection. Sensorgrams were fitted with a 1:1 Langmuir model for all tested anti-SIRP antibodies. The kinetic parameters (kₐ, kd and KD) were calculated using the Biacore T200 evaluation software (v3.1).
The Kd is the equilibrium constant for the complex coming apart. The low end stands for tighter binding, the high end for weaker binding. In turn, B1 came in with a Kd below 0.01 nM.

The molecule B2 returned a Kd below 0.01 nM.

For B3, the Kd amounted to 0.016 nM.

The next assay addresses T4, human SIRPα1 (huSIRPα1), protein antigen (human, UniProt P78324 31-370, limits assumed, biotinylated in the SPR assay).
T4 construct: Coated on the plate in ELISA, biotinylated and captured in SPR; also called v2
In words: SPR, biotinylated antigen captured, 25 C. How it is done:
as §1
(Surface plasmon resonance follows binding to a sensor surface in real time, without labels.)
Take B1: the Kd amounted to 0.011 nM.

With B2, the Kd is below 0.01 nM.

With B3, the Kd was found to be 0.087 nM.

A further assay deals with human SIRPαBIT expressed on cells (human) (UniProt P78324). In words: flow cytometry, U937 cells. Background: A flow cytometer gives signals particle by particle.
Chain of human SIRPαBIT expressed on cells (human) (P78324 31-504): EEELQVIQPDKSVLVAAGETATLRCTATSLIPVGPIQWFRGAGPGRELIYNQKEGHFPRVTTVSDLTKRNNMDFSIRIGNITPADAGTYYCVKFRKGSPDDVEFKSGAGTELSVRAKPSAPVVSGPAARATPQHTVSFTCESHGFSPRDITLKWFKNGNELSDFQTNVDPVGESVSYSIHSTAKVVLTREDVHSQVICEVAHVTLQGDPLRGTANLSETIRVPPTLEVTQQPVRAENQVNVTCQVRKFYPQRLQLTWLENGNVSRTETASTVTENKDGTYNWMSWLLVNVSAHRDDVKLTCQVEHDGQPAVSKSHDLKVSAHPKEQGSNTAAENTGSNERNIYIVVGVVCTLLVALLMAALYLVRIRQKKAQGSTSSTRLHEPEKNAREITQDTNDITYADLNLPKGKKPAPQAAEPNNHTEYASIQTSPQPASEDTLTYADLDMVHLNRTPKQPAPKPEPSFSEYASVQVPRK
What is called EC50 is the concentration giving half of the maximal effect. Regarding B1, the 50% effective concentration (EC50) turned out to be 0.09 µg/mL.

B4: the EC50 came out at 0.12 µg/mL.

B5 registered an EC50 of 0.16 µg/mL.

B6 returned an EC50 of 0.14 µg/mL.

B3 gave an EC50 of 0.19 µg/mL.

The target is the same in the next assay. Put plainly: flow cytometry, ExpiCHO-S cells.
The molecule B4 showed an EC50 of 0.18 µg/mL.

In turn, B5 came in with an EC50 of 0.22 µg/mL.

B6: the EC50 came to 0.27 µg/mL.

Another assay deals with human SIRPαBIT (huSIRPαBIT), protein antigen (human) (UniProt P78324). In words: SPR, biotinylated antigen captured, 25 C.
Chain of human SIRPαBIT (huSIRPαBIT), protein antigen (human) (P78324 31-370): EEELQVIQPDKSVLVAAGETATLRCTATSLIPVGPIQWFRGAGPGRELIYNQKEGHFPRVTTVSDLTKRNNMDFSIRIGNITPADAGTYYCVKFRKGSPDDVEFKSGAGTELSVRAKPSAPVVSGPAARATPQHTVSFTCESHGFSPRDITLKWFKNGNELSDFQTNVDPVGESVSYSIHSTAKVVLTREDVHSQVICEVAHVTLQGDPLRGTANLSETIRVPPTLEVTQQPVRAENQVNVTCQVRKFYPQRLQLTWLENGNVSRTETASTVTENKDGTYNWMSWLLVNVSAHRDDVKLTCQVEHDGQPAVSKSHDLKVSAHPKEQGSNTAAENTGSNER
B1 showed a Kd below 0.01 nM.

The molecule B2 came in with a Kd below 0.01 nM.

The molecule B3 registered a Kd of 0.015 nM.

The target in another assay is T1, cynomolgus SIRPα (cySIRPα), protein …. In words: ELISA, antigen coated. How it is done:
(§2) ELISA assay: Solutions of huSIRPα₁, huSIRPαBIT, huSIRPβ₁ᵥ₁, huSIRPβ₁ᵥ₂, huSIRPγ and cySIRPα in phosphate buffered saline (PBS) were each added to a multiple well black polystyrene plate for ELISA and allowed to adhere for 1 h at RT. Unbound protein was removed with three washing steps using standard washing buffer. Subsequently, blocking buffer was added to the wells. After 1 h incubation at RT, the wells were washed three times with standard washing buffer. The antibodies in buffer at various concentrations were added to the wells and incubated at RT for 1 h. Unbound antibodies were removed with three washing steps using standard washing buffer. Goat anti human IgG (Fab′)₂:horse radish peroxidase (HRP) in buffer was added to the wells and incubated at RT for 1 h. 3,3′,5,5′-Tetramethylbenzidine (TMB) was added and after sufficient colour development HCl was added. Absorbance was read at 450 nm/620 nm.
In general terms: ELISA stands for enzyme-linked immunosorbent assay.
Regarding B4, the midpoint of the response, the EC50, lay at 0.026 µg/mL.

On to B5, for which the EC50 was found to be 0.123 µg/mL.

B6 gave an EC50 of 0.038 µg/mL.

On to B3, for which the response was half-maximal at 0.005 µg/mL (EC50).

Another assay deals with T5, human SIRPβ1v2 (huSIRPβ1v2) (human, UniProt Q5TFQ8 30-371).
T5 construct: Coated on the plate in ELISA; Only the Ensembl protein number is printed; also called huSIRPß1v2
T5 sequence (Q5TFQ8 30-371 limits assumed): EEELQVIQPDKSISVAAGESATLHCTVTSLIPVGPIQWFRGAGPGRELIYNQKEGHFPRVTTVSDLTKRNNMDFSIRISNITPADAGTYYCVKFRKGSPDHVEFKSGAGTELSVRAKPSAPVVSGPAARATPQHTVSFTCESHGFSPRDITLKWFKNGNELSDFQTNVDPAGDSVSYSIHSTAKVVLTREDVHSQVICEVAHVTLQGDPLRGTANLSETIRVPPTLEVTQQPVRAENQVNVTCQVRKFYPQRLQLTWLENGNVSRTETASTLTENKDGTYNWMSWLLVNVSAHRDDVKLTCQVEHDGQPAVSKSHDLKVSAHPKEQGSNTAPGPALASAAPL
In words: ELISA, antigen coated. How it is done:
as §2
As to B4, the EC50 was determined as 0.019 µg/mL.

On to B5, for which the EC50 is 0.11 µg/mL.

Turning to B6, the EC50 came to 0.028 µg/mL.

On to B3, for which the 50% effective concentration (EC50) was found to be 0.006 µg/mL.

The target of another assay is T3, human SIRPγ (huSIRPγ). In words: ELISA, antigen coated. How it is done: as §2
Take B4: the EC50 was above 100 µg/mL.

B5 came in with an EC50 above 100 µg/mL.

In turn, B6 registered an EC50 above 100 µg/mL.

Regarding B3, the EC50 was found to be 0.006 µg/mL.

The next assay concerns the target T4, human SIRPα1 (huSIRPα1), protein antigen. In words: ELISA, antigen coated. How it is done:
as §2
In turn, B4 displayed an EC50 of 0.019 µg/mL.

With B5, the EC50 came out at 0.031 µg/mL.

As for B6, the EC50 was found to be 0.033 µg/mL.

As for B3, the EC50 was found to be 0.007 µg/mL.

The target in a further assay is T6, human SIRPα1 expressed on cells (human, UniProt P78324 31-504).
T6 construct: whole, on cells; also called ExpiCHO-S (huSIRPα1); CHO cells expressing huSIRPα1
T6 sequence (P78324 other isoform, or with tags, fused parts or gaps limits assumed): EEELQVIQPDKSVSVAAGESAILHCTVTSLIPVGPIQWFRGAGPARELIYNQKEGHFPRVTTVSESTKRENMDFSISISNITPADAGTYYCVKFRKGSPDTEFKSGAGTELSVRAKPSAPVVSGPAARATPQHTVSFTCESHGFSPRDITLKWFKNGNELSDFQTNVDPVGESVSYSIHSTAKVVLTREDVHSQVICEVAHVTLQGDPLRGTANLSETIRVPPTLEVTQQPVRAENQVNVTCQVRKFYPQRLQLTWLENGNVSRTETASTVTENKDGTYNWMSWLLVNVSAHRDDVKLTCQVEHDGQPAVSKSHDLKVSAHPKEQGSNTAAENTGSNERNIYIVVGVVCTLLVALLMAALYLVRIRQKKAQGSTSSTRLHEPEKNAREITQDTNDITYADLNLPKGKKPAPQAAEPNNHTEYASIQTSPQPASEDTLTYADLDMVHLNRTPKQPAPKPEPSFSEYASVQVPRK
In words: flow cytometry, ExpiCHO-S cells. From the text: (§3) Flow Cytometry: U937 cells endogenously expressing human SIRPαBIT antigen and cells derived from a non-engineered subclone that has been screened and isolated from CHO-S Chinese hamster ovary cells (ExpiCHO-S) cells expressing human SIRPα₁, SIRPαBIT or cySIRPα antigen (100,000 cells/well in a 96-well plate) were washed three times with ice-cold FACS buffer (1×PBS (LONZA) containing 0.2% v/w BSA (Sigma-Aldrich, St. Louis, Mo.) and 0.02% v/w NaN₃ (Sigma-Aldrich), followed by the addition of a concentration range of each primary mAb (50 μL/well) diluted in ice-cold FACS buffer. After an incubation time of 30 min at 4° C., the cells were washed three times with ice-cold FACS buffer and 50 μL/well secondary mAb (AffiniPure F(ab′)₂ fragment Goat-anti-human IgG-APC, 1:6,000 dilution, Jackson Immuno Research) was added. After 30 min at 4° C., cells were washed twice and resuspended in 150 μL FACS buffer. Fluorescence intensities were determined by flow cytometry (BD FACSVerse, Franklin Lakes, N.J.) and indicated as the median fluorescence intensity (MFI-Median) for U937 cells and ExpiCHO-S cells. Curves were fitted by nonlinear regression using the sigmoidal dose-response equation with variable slope (four parameters) in GraphPad Prism (version 7.02 for Windows, GraphPad, San Diego, Calif.). EC₅₀ values were calculated as the concentration in μg/mL that gives a response half way between bottom and top of the curve, when using a 4-parameter logistic fit.
B4 came in with an EC50 of 0.22 µg/mL.

The molecule B5 returned a half-maximal effective concentration (EC50) of 0.27 µg/mL.

Molecule B6 displayed a concentration for a half-maximal effect (EC50) of 0.19 µg/mL.

In a further assay the target is T2, cynomolgus SIRPα expressed on cells. In words: flow cytometry, ExpiCHO-S cells.
Source text: as §3
Molecule B4 yielded an EC50 of 0.15 µg/mL.

The molecule B5 had an EC50 of 0.26 µg/mL.

B6 yielded an EC50 of 0.16 µg/mL.

For another assay, the target named is human SIRPβ1v1 (huSIRPβ1v1) (human) (UniProt O00241). In words: ELISA, antigen coated.
Chain of human SIRPβ1v1 (huSIRPβ1v1) (human) (O00241 30-371): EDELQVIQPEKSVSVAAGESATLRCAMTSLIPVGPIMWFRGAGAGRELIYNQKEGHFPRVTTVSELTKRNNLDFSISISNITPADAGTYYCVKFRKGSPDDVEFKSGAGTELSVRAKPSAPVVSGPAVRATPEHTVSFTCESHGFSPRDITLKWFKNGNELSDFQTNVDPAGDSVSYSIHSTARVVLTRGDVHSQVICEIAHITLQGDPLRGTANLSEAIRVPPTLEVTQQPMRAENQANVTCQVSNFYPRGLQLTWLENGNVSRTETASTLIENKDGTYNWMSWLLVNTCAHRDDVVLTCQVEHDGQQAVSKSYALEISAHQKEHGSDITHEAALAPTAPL
B4 came in with an EC50 above 100 µg/mL.

Turning to B5, the EC50 worked out at 3.52 µg/mL.

B6: the EC50 is above 100 µg/mL.

With B3, the concentration for a half-maximal effect (EC50) was found to be 0.008 µg/mL.

The target in the next assay is human SIRPαBIT (huSIRPαBIT), protein antigen (human) (UniProt P78324). Put plainly: ELISA, antigen coated.
Take B4: the half-maximal effective concentration (EC50) came out at 0.02 µg/mL.

B5 showed an EC50 of 0.021 µg/mL.

For the molecule B6, the EC50 came to 0.027 µg/mL.

In turn, B3 yielded an EC50 of 0.005 µg/mL.
